The supplement of paper PMC10567573

B1: FAM189A2 (parent)
chain: PRCDLVDLGEGKICFCCEEFQPAK
B2: CDC25B (parent)
chain: KSPIAPCSLDKRVILIFHCEFSSE

Variants of: B1
Experiment: protein stability index of a GFP-peptide fusion (GPS, HEK-293T) (PSI 1-6); higher = more stable
Conditions: c terminus: a fixed tail appended
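Also: lentivirally expressed fusions sorted by FACS into six bins by GFP to DsRed ratio, PSI derived from sequencing read proportions per bin multiplied by bin number.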

Protein stability index of substitutions, site by site:
D4: A 2.11 | K 3.44 | M 2.46 | W 1.16 | F 2.11 | N 4.71 | T 2.7 | Q 3.44 | L 1.67 | C 2.74 | P 3.39 | G 2.26 | Y 1.86 | R 3.56 | S 2.7 | I 1.57 | V 2.5 | H 2.85 | E 3.27
D7: K 3.76 | W 2.24 | G 3.28 | V 1.89 | R 2.6 | M 1.93 | F 2.03 | I 1.71 | A 2.61 | T 2.79 | S 2.21 | Y 2.12 | H 3.25 | N 2.76 | Q 2.2 | C 2.92 | E 3.05 | L 2.3 | P 3.17
V6: C 4.15 | W 2.28 | Q 3.92 | P 3.03 | K 3.78 | E 3.48 | A 3.49 | I 2.49 | M 2.65 | D 3.34 | T 2.98 | F 2.71 | N 3.71 | S 3.21 | G 3.46 | L 2.6 | Y 2.73 | R 3.4 | H 4.45
P1: R 2.43 | A 2.24 | W 2.43 | E 3.16 | H 4.03 | L 2.84 | G 3.14 | V 1.87 | N 3.39 | Q 2.9 | M 1.86 | Y 1.91 | T 2.63 | F 1.85 | I 1.78 | D 2.67 | S 3 | K 3.14 | C 2.83
C3: I 2.05 | M 2.3 | H 3.31 | G 2.98 | S 2.43 | W 2.69 | E 3.55 | Q 3.26 | T 2.44 | L 2.97 | R 2.63 | Y 1.91 | A 2.01 | F 2.22 | K 3.07 | D 3.53 | N 2.25 | P 2.89 | V 3.33
R2: Y 2.25 | D 3.72 | A 2.83 | V 2.17 | W 1.98 | C 3.55 | H 2.58 | I 2.83 | Q 3.13 | G 3.18 | E 3.35 | F 1.65 | K 2.46 | P 3.8 | T 2.94 | M 2.41 | L 2.8 | N 2.9 | S 3.06
L5: G 4.44 | C 4.89 | E 3.84 | R 2.98 | V 3.02 | F 2.6 | S 3.03 | A 3.98 | Y 2.85 | D 3.95 | P 3.39 | I 3.13 | H 4.84 | W 2.16 | K 4.28 | N 3.52 | M 2.86 | Q 3.73 | T 3.47
L8: A 3.54 | E 3.65 | C 3.87 | D 3.67

Variants of: B2
Experiment: as above
Conditions: c terminus: a fixed tail appended

Protein stability index of substitutions, site by site:
S23: W 3.34 | C 1.23 | L 2.04 | Q 2.79 | A 4.14 | N 2.25 | T 2.89 | M 2.11 | E 1.73 | V 2.95 | F 4.12 | I 2.64
F21: M 3.21 | D 1.51 | I 2.1 | A 2.32 | K 1.5 | C 2.97 | N 1.88 | T 3.13 | S 2.69 | G 2.94 | H 2.91 | Q 2.53 | R 2.15 | P 2.66
R12: P 2.66 | Y 3.38 | I 3.03 | D 3.43 | S 4.14 | G 2.23 | K 3.98 | L 3.04 | M 2.89 | F 5.41 | N 2.76 | H 2.79
E20: M 2.51 | F 2.05 | V 2.73 | I 2.55 | S 3.75 | N 3.58 | P 3.36 | A 1.82 | C 4.34 | K 1.64 | H 2.2 | G 2.81 | D 2.58
I16: Y 2.91 | N 2.54 | K 1.39 | A 1.52 | V 1.06 | L 1.38 | M 2.25 | S 2.01 | P 3.02 | D 2.92 | Q 1.52 | C 2.93 | W 1.05 | E 1.07 | T 2.18 | R 2.5 | H 1.68 | G 1.4
C19: S 4.17 | W 2.31 | A 3.06 | Y 2.08 | D 2.34 | I 2.77 | T 3.92 | K 2.03 | E 1.85 | P 2.75 | N 1.32 | Q 4.16 | H 1.89 | R 2.96
D10: S 2.26 | T 3.32 | Y 1.66 | V 2.67 | W 2.94
H18: A 3.34 | C 3.24 | S 3.34 | P 2.44 | N 2.26 | K 2.45 | F 3.53 | Y 2.5 | D 3.1 | G 2.81 | I 1.86 | M 1.88
K11: Y 2.32 | V 4.34 | P 3.23 | Q 2.16 | F 2.69 | I 3.79 | M 2.9 | C 2.52 | H 2.1 | L 2.35
L15: S 1.86 | A 2.68 | F 2.88 | M 2.88 | G 1.39 | K 1.42 | H 1.05 | Y 2.66 | N 2.21 | I 3.49 | T 1.8 | P 2.28 | D 2.38 | R 1.71 | Q 1.84 | E 1.83
S22: P 2.1 | Q 2.5 | A 3.41 | D 3.4 | H 2.09 | F 2.21 | C 1.43 | M 2.66 | K 2.08 | W 4.72 | T 2.88 | Y 2.31 | I 1.34
F17: Q 2.44 | T 1.8 | E 2.76 | A 1.92 | N 2.54 | C 2.19 | I 2.47 | R 1.69 | D 3.13 | K 2.33 | G 1.39 | S 1.8 | P 2.36 | H 1.64 | V 4.17 | M 1.66
I14: N 1.96 | P 2.25 | H 3.76 | E 2.07 | F 2.94 | V 2.87 | S 1.94 | D 2.54 | G 1.56 | C 1.54 | A 2.65 | T 2.1 | L 1.95 | Q 1.1 | M 2.35 | R 1.79
V13: H 1.85 | K 1.32 | D 2.51 | E 1.45 | Q 1.42 | A 3.2 | C 1.21 | Y 2.97 | R 3.12 | W 4.17 | S 3.15 | F 2.29 | I 3.36 | G 1.14 | L 2.5 | P 1.49 | N 1.61 | T 2.89
E24: T 2.44 | Y 2.39 | K 3.12 | L 1.98 | D 2.77 | Q 2.38 | G 2.09 | V 2.98
